Experiment [1] deals with MUC5AC expressed by CFPAC-1 pancreatic tumor cells (human) (UniProt P98088). Nature of the experiment: immunofluorescence, fixed and permeabilized CFPAC-1 cells, 2 µg/ml.
Experiment [2] has the same target. Put plainly: FACS, CFPAC cells, 2 µg/ml FITC antibody. In general terms: Flow cytometry measures light scatter and fluorescence of single cells or particles in a stream.
Experiment [3] addresses MUC5AC expressed by LS174T colorectal tumor cells (human) (UniProt P98088). Put plainly: FACS, LS174 cells, 2 µg/ml FITC antibody.
The target in experiment [4] is MUC5AC (human) (UniProt P98088). Nature of the experiment: FACS, SW480 cells, 2 µg/ml FITC antibody.
Experiment [5] shares this target. Nature of the experiment: FACS, Colo-205 cells, 2 µg/ml FITC antibody.
Experiment [6] shares this target. Put plainly: flow cytometry, SW480 colorectal tumor cells.
The target of experiment [7] is MUC5AC expressed by LS174T colorectal tumor cells (human) (UniProt P98088). Put plainly: flow cytometry, LS174T colorectal tumor cells.
Experiment [8] has as its target MUC5AC expressed by CFPAC-1 pancreatic tumor cells (human) (UniProt P98088). Put plainly: flow cytometry, CFPAC-1 pancreatic tumor cells.
Experiment [9] deals with MUC5AC (human) (UniProt P98088). Put plainly: flow cytometry, Colo-205 colorectal tumor cells.
Experiment [10] addresses MUC5AC expressed by CFPAC-1 pancreatic tumor cells (human) (UniProt P98088). Nature of the experiment: rosetting assay, antibody-coupled beads on CFPAC-1 cells.

Sequence of MUC5AC expressed by CFPAC-1 pancreatic tumor cells (human) (P98088 other isoform, or with tags, fused parts or gaps limits assumed): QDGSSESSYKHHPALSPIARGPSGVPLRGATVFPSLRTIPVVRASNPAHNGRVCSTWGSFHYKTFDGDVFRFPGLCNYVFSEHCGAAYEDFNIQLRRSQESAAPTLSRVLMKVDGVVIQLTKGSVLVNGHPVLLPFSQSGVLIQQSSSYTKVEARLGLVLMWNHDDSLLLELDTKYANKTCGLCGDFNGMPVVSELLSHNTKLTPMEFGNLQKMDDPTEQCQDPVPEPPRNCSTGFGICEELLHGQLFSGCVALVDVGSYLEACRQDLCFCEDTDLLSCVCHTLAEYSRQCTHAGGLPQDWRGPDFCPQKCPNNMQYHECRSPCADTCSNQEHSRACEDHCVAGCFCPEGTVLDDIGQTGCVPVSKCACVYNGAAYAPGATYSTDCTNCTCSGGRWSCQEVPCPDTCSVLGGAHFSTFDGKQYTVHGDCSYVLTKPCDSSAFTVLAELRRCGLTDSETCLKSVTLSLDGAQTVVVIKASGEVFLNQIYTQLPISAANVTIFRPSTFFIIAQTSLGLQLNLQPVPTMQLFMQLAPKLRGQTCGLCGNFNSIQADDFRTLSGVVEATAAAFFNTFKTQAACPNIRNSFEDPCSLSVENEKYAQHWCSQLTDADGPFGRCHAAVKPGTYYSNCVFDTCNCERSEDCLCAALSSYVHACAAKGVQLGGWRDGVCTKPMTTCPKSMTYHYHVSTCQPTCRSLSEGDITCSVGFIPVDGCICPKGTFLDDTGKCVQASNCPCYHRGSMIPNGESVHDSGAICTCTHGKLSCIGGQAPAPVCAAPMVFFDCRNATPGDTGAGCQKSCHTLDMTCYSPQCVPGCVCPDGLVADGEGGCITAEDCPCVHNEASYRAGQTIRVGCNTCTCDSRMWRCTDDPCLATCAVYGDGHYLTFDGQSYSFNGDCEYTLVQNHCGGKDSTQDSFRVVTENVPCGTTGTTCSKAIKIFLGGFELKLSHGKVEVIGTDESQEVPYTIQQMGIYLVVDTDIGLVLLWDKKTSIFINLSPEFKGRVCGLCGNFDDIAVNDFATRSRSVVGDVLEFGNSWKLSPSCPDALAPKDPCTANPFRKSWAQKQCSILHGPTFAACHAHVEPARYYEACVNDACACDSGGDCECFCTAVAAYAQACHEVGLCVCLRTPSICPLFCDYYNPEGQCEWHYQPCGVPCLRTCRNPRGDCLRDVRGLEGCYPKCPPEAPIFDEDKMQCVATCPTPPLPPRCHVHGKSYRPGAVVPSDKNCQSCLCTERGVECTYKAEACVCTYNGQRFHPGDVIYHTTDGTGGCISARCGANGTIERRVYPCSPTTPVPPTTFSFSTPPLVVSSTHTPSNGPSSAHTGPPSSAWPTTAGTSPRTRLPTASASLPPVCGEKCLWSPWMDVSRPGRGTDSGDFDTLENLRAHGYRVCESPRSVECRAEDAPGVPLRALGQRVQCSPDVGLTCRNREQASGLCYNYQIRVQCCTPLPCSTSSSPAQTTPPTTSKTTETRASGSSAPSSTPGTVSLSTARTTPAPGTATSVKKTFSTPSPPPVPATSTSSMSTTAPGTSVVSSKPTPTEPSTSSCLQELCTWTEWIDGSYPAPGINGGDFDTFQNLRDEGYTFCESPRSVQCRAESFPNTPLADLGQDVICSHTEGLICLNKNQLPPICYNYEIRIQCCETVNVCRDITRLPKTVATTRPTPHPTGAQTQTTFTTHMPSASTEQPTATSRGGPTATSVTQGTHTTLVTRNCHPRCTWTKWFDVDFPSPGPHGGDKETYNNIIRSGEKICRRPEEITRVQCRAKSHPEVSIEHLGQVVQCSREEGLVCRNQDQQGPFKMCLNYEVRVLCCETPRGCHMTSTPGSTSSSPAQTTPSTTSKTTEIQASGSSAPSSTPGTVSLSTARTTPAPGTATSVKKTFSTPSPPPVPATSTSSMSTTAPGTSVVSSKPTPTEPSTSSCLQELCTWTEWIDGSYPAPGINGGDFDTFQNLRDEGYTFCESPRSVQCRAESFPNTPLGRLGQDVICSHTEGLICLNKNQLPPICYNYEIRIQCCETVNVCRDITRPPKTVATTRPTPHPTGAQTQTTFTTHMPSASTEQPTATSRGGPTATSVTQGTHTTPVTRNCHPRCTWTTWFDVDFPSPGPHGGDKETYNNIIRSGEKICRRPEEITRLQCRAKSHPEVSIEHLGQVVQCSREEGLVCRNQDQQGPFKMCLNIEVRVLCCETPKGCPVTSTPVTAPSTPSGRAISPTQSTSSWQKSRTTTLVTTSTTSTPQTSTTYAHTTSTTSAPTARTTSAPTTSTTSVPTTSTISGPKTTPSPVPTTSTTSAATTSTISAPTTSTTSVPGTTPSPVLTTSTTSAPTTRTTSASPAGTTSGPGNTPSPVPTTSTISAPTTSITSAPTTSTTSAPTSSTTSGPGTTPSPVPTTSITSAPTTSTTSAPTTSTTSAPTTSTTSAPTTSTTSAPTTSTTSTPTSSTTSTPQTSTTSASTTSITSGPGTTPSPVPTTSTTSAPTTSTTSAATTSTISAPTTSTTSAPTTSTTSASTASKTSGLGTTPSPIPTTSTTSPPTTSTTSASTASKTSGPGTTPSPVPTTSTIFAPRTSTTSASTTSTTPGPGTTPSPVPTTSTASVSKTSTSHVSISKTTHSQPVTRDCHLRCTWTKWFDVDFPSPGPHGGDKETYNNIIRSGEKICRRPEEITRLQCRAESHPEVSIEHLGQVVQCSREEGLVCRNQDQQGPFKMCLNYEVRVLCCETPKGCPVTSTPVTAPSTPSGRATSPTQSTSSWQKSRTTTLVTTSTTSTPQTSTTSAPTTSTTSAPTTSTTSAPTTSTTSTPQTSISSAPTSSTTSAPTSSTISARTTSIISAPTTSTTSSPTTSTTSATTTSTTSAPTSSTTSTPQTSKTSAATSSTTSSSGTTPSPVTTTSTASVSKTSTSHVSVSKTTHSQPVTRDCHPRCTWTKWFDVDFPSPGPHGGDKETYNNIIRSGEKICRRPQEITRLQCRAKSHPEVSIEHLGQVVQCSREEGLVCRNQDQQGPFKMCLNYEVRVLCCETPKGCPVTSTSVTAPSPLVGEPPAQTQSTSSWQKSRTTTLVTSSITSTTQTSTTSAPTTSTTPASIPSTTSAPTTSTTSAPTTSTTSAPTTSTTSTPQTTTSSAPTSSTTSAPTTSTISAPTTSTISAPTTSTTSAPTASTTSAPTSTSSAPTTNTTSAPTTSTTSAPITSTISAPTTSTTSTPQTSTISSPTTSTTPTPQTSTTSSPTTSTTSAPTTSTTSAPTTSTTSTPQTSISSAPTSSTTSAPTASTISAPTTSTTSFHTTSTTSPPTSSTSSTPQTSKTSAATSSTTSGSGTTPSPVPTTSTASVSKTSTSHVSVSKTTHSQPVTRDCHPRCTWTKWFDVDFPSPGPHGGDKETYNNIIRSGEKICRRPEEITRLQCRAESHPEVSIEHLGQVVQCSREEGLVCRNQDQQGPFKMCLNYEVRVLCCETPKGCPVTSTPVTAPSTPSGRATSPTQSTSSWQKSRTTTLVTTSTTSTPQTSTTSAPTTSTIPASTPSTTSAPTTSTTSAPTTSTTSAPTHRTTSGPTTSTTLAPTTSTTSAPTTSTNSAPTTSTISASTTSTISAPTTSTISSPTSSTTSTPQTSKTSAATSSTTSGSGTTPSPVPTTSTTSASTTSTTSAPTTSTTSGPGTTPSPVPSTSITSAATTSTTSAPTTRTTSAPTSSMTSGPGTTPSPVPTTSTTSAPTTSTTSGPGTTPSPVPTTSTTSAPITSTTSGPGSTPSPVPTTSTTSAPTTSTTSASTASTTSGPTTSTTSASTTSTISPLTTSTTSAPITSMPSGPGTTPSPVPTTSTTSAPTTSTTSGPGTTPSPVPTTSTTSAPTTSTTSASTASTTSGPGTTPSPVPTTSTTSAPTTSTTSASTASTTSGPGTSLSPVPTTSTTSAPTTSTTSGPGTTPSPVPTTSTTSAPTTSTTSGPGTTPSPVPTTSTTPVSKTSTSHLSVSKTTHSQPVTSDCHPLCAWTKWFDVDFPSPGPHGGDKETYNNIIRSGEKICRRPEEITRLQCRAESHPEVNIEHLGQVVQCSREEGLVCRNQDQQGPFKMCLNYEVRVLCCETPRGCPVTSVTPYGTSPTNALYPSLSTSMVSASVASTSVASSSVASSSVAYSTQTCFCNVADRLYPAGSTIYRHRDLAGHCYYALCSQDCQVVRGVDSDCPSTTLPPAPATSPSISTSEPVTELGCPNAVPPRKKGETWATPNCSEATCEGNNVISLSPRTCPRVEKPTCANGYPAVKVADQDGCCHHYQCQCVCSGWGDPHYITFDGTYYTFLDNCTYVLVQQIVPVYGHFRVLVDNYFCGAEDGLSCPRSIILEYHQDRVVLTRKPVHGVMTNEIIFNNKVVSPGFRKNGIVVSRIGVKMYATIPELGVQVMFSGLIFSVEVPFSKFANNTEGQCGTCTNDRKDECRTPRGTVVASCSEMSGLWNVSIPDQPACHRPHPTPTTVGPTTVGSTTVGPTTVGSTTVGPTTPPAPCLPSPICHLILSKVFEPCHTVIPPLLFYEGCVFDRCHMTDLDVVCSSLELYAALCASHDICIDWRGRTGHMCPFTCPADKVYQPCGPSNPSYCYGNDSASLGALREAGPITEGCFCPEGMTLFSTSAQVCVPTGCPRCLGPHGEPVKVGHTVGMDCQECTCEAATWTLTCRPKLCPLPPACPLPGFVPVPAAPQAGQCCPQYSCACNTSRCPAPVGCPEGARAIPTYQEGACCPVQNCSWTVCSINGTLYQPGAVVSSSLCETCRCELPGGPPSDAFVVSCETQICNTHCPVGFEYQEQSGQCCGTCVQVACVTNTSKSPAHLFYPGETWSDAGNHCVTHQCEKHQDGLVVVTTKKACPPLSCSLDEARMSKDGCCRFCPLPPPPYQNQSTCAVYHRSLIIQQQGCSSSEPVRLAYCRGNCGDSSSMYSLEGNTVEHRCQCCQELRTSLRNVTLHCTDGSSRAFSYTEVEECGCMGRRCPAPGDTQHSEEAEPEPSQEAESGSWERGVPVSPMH
Sequence of MUC5AC expressed by LS174T colorectal tumor cells (human) (P98088 other isoform, or with tags, fused parts or gaps limits assumed, change not shown): as the sequence (P98088 other isoform, or with tags, fused parts or gaps limits assumed) above
Sequence of MUC5AC (human) (P98088 other isoform, or with tags, fused parts or gaps limits assumed): as above

Substance 1-13M1 (Abcam Inc.) (antibody) displayed a % of cells stained in experiment [1] of 100%.
As for 2-11M1 (Abcam Inc.) (antibody), in [1], the % of cells stained is below 5%.
Consider Isotype control antibody, for which the Percent positive was determined as 1.79% in experiment [2], 3.85% in [3], 3.38% in the experiment with MUC5AC (human) [4] and 2.33% in the experiment with MUC5AC (human) [5]. The % Cells Stained in the experiment with MUC5AC (human) [6] was 3.38%; in experiment [7], 3.85%; in experiment [8] it was 1.79%; with MUC5AC (human) [9], 2.33%. In addition, the mfi in the experiment with MUC5AC (human) [6] stood at 56 mfi; in experiment [7], 35 mfi; in experiment [8] it was 25 mfi; with MUC5AC (human) [9], 34 mfi.
In the case of human IgG (antibody), in experiment [10], the Rosetted cells (>8 beads) worked out at 0%.

For the origin of these results see patent US20190322720A1.
